The results in this text go back to the nanobody polyreactivity screen of Harvey et al. (2022).

The nature of this data set: yeast display, Sf9 membrane polyspecificity reagent, FACS + sequencing; frameworks hold sequencing errors. A digest of the protocol: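 Galactose induction of a Saccharomyces cerevisiae BJ5465 synthetic nanobody display library ran 36–48 hours. The cells were then stained for 1 hour at 4 °C with 10% biotinylated, detergent-solubilized Sf9 membrane reagent, pulled down on streptavidin microbeads and FACS-sorted into low and high (top ~1%) gates on expression and reagent-binding fluorescence. Labels for polyreactivity follow the gate of origin.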
Take “QVQLVESGGGLVQAGGSLRLSCAASGFTFAYNAMGWYRQAPGKERELVAAISSSGGRTYYADSVKGRFTISRDNAKNTVYLQMNSLKPEDTAVYDCATRPKVAYEYDYWGQGTQVTVSS”: the “polyreactivity (PSR sort gate)” value is recorded as “high polyreactivity”.
Take “QVQLVESGGGLVQAGGSLRLSCAASGFTFAYYAMGWYRLAPGKERELVAAINRSGGSTYYADSVKGRFTISRDNAKNTVYIEMNSLKPEDTAVYYCAAARPSLRDGVAHYYWGQGTQVTVSS”: the “polyreactivity (PSR sort gate)” value is “high polyreactivity”.
Next, “QVQLVESGGGLVQAGGSLRLSCAASGFTFAYYAMGWYRQAPGKERELVAAINWSGTRTSYADSVKGRFTISRDNAKNTVYLQMNSLKPEDSAVYYCAADSSLRYDYWGQGTQVTVSS”: “high polyreactivity”; “QVQLVESGGGLVQAGGSLRLSCAASGFTFAYYAMGWYRQAPGKERELVASISYNGGITNYADSVKGRFTISRDNAKNTVYLQMNSLKPEDTAVYYCAAGVFFFTFDYWGQGTQVTVSS”: “low polyreactivity”; “QVQLVESGGGLVQAGGSLRLSCAASGFTFAYYAMGWYRQAPGTERELVAAITYSGGSTYYADSVKGRFTISRDNAKNTVYLQMNSLKPEDTAVYYCNAYDRRYYYGRWYGEFDYWGQGTQVTVSS”: “low polyreactivity”.
In the case of “QVQLVESGGGLVQAGGSLRLSCAASGFTFCKYTMGWYRQAPGKERELVAAITNSGTSTYYADSVKGRFTISRDNAKNTVYLQMNSLKPEDTAVYYCARDNEPDYYSYPYDYWGQGTQVTVSS” it was “low polyreactivity”; in that of “QVQLVESGGGLVQAGGSLRLSCAASGFTFCQYVMGWYRQAPGKERELVAAINWSGGSTYYADSVKGRFTISRDNAKNTVYLQMNSLKPEDTAVYYCNAVKAPYLRYDYWGQGTQVTVSS”, “high polyreactivity”.
Regarding “QVQLVESGGGLVQAGGSLRLSCAASGFTFDDYAMGWYRQAPGKERELVATITNSDSSTYYADSVKGRFTISRDNAKNTVYLQMNSLKPEDTAVYYCNADGEGADSDYDYWGQGTQVTVSS”, the “polyreactivity (PSR sort gate)” value is listed as “low polyreactivity”.
In the case of “QVQLVESGGGLVQAGGSLRLSCAASGFTFDDYTMGWYRHAPGKERELVAAITSSGDSTYYADSVKGRFTISRDNAKNTVYLQMNSLKPEDTAVYYCAAQSYPFDRDYWGQGTQVTVSS” it was “high polyreactivity”; in that of “QVQLVESGGGLVQAGGSLRLSCAASGFTFDGYAMGWYRQAPGKERELVAAISDSGDSTYYADSVKGRFTISRDNAKNTVYLQMNSLKPEDTAVYYCAAGLGYYWSDYFAYDYWGQGTQVTVSS”, “low polyreactivity”.
Next, “QVQLVESGGGLVQAGGSLRLSCAASGFTFDHNDMGWYRQAPGKEMELVAAITWSAGSTYYADSVKGRFTISRDNAKNTVYLEMNSLKPEDTAVYYCAADAWYYSIYRGGDYWGQGTQVTVSS”: “low polyreactivity”; “QVQLVESGGGLVQAGGSLRLSCAASGFTFDKNVMGWYRQAPGKERELVAAISVRGGTTYYADSVKGRFTISRDNAKNTVYLQMNSLKPEDTAVYYCAARAYGPPARYDSWGQGTQVTVSS”: “low polyreactivity”.
With “QVQLVESGGGLVQAGGSLRLSCAASGFTFDKYAMGWYRQAPGKERELVAAITQNGGSTNYADSVKGRFTISRDNAKNTVYLQMNSLKPEDTAVYYCATRSSYLSYVSRMYYWGQGTQVTVSS”, the “polyreactivity (PSR sort gate)” value is “high polyreactivity”.
“QVQLVESGGGLVQAGGSLRLSCAASGFTFDPYAMGWYRQAPGKERELVAAISFSGGSTSYADSVKGRFTISRDNAKNTVYLHMNSLKLEDTAVYYCNAEYDWWSYWYDYWGQGTQVTVSS”: the “polyreactivity (PSR sort gate)” value was “high polyreactivity”.
Next, “QVQLVESGGGLVQAGGSLRLSCAASGFTFDQYAMGRNRQAPGKERELVAVISSGGSTYYADSVKGRFTFSRDNAKNTVYLQMNSLKQEDTAVYYCNRDRQRRYDYWGQGTQVTLSS”: “high polyreactivity”; “QVQLVESGGGLVQAGGSLRLSCAASGFTFDQYTMGWYRQAPGKERELVAAISSSGGSTYYADSVKGRFTISRDNAKNTVYLQMNSLKPEDTAVYYCAARFLLTQRVSHDYRGQGTQVTVSS”: “low polyreactivity”; “QVQLVESGGGLVQAGGSLRLSCAASGFTFDRNAMGWYRQAPGKERGFVAAISSSGGRTYYADSVKGRFTISRDNAKITVYLEMNSLKQEDTALYYCAADFVSRPSAYGSSYYWGQGTQVTVSS”: “high polyreactivity”.
On to “QVQLVESGGGLVQAGGSLRLSCAASGFTFDSNAMGWYIQAPGKERELVAAISTGGSTYYADSVKGRFTISRDNAKNTVYLQMNSLKPEDTAVYYCARDPPYPDTWYGYWGQGTQVTVSS”, for which the “polyreactivity (PSR sort gate)” value is on record as “low polyreactivity”.
Consider “QVQLVESGGGLVQAGGSLRLSCAASGFTFDSNAMGWYRQAPGKERELVAAISTGGSTYYADSVKGRFTISRDNAKNTVYLQMNSLKPEDTAVYYCARDPPYPDTWYGYWGQGTQVTVSS”, for which the “polyreactivity (PSR sort gate)” value was “low polyreactivity”.
On to “QVQLVESGGGLVQAGGSLRLSCAASGFTFDSYAMGWYRQAPGKERELVAAITSDGSTYYADSVKGRFTISRDNAKNTVYLQMNSLKPEDTAVYYCAADGISLYATAYDYWGQGTQVTVSS”, for which the “polyreactivity (PSR sort gate)” value is recorded as “low polyreactivity”.
“QVQLVESGGGLVQAGGSLRLSCAASGFTFDSYAMGWYRQAPGKERELVAAITWSGGSTYYADSVKGRFTISRDNAKNTVYLQMMSLKPEDTAVYYCNVYRYDGDYWGQGTQVTVSS”: the “polyreactivity (PSR sort gate)” value is “high polyreactivity”.
In the case of “QVQLVESGGGLVQAGGSLRLSCAASGFTFDSYAMGWYRQAPGKERELVADITWDGGSTYYADSVKGRFTISRDNAKNTVYLQMKSLKPEDTAVYYCAADFGTFSIDVYSWMDYWGQGTQATVSS” it was “low polyreactivity”; in that of “QVQLVESGGGLVQAGGSLRLSCAASGFTFDVYTMGWYRQAPGKEREFVAAISGSGGSTYYADSVKGRFTISRDNAKNTVYLQMNSLKPEDTAVYYCNAGLSRVSHRHLSHSLQGYDYWGQGTQVTVSS”, “low polyreactivity”; in that of “QVQLVESGGGLVQAGGSLRLSCAASGFTFDYYAMGWYRQAPGKDRELVAAITSGSITYYADSVKGRFTISRDNAKNTVYLQMNSLKPEDTAVYYCARYGYRRVGSRWAEFDYWGQGTQVTVSS”, “high polyreactivity”.
With “QVQLVESGGGLVQAGGSLRLSCAASGFTFDYYAMGWYRQAPGKERELVAAITSGSITYYADSVKGRFTISRDNAKNTVYLQMNSLKPEDTAVYYCARYGYRRVGSRWAEFDYWGQGTQVTVSS”, the “polyreactivity (PSR sort gate)” value is “high polyreactivity”.
In the case of “QVQLVESGGGLVQAGGSLRLSCAASGFTFDYYVMGWYIQAPGKERELVAAITFSATSTYYADSVKGRYTISRDNAKNTVYLQMNSLNPEDTAVYYCAAVICNWQYQYYYWGQGTKVTVSS” it was “low polyreactivity”.
For the sequence “QVQLVESGGGLVQAGGSLRLSCAASGFTFEFYVMGGYSPAPGKERELVAAISTTGGSTYYADSVKGRFTISRDNAKNTVYLQMNSLKPEDTAVYYCAAEYYLWWKSHLWEYGYWGQGTQVTVSS”, the “polyreactivity (PSR sort gate)” value is given as “high polyreactivity”.
Take “QVQLVESGGGLVQAGGSLRLSCAASGFTFEGYAMGWYRQAPGKERELVAAISDNGGRTYYADSVKGRFTISRDNAKNTVYLQMHPLTPEETEVYYCNARPAYSGPDYDYYHGRRYDYWGQGTQVTVSS”: the “polyreactivity (PSR sort gate)” value is “low polyreactivity”.
In the case of “QVQLVESGGGLVQAGGSLRLSCAASGFTFEIYAMGWYSQAPGKVRELVAAISKSGGSTYYADSVKGRFTISRDNAKKRVYLQMNSLKPEDSSVYSCAARYKALYDYWGQGTQVTVSS” it was “high polyreactivity”; in that of “QVQLVESGGGLVQAGGSLRLSCAASGFTFEKYVMGWYRQAPGKEREFVAAITRSGGRTYYADSVKGRFTISRDNAKNTVYLQMNSLKPEDSAVYYCAAAFSRSDTGGGSWGQGTEVTVSS”, “high polyreactivity”.
